Source: the supplement of paper PMC7877785
± gives the uncertainty stated by the source.

Test: self-splicing fitness, log relative to wild type (ln ratio); higher = more splicing; Tetrahymena group I intron in knt gene, E. coli kanamycin selection, DiMSum; sequences stand for … in CUCUCU…GGAGGGAAAAGUUAUCAGGCAUGCACCUGGUAGCUAGUCUUUAAACCAAUAGAUUGCAUCGGUUUAAAAGGCAAGACCGUCAAAUUGCGGGAAAGGGGUCAACAGCCGUUCAGUACCAAGUCUCAGGGGAAACUUUGAGAUGGCCUUGCAAAGGGUAUGGUAAUAAGCUGACGGACAUGGUCCUAACCACGCAGCCAAGUCCUAAGUCAACAGAUCUUCUGUUGAUAUGGAUGCAGUUCACAGACUAAAUGUCGGUCGGGGAAGAUGUAUUCUUCUCAUAAGAUAUAGUCGGACCUCUCCUUAAUGGGAGCUAGCGGAUGAAGUGAUGCAACACUGGAGCCGCUGGGAACUAAUUUGUAUGCGAAAGUAUAUUGAUUAGUUUUGGAGUACUCGUGGUCG
Outline: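 The eight P1ex-region nucleotides of an intron in the knt kanamycin-resistance gene on pET-22b(+) were all randomised and the library put into E. coli BL21(DE3). Six replicate transformations were grown overnight at 37°C or 30°C on LB agar with or without 25 μg/mL kanamycin, together with 100 μg/mL carbenicillin, 50 μM IPTG and 0.2% rhamnose. Colonies were pooled and amplicon-sequenced on an Illumina HiSeq 2500. Fitness from DiMSum is the error-weighted combination of wild-type-normalised replicate fold changes, kanamycin over none.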

CGAAAGCAAUAUUACGGGGC
self-splicing fitness (ln) (30 °C): -4.34 ± 0.32 | self-splicing fitness (ln) (37 °C): -1.98 ± 0.19

CGAAAGCAAUAUUACGUAGU
self-splicing fitness (ln) (30 °C): -3.2 ± 0.098 | self-splicing fitness (ln) (37 °C): -2.77 ± 0.13

CGAAAGCAAUAUUACGUCAC
self-splicing fitness (ln) (37 °C): -2.32 ± 0.32

CGAAAGCAAUAUUACGUCAU
self-splicing fitness (ln) (30 °C): -4.71 ± 0.36 | self-splicing fitness (ln) (37 °C): -0.631 ± 0.14

CGAAAGCAAUAUUACGUCCU
self-splicing fitness (ln) (30 °C): -0.837 ± 0.11 | self-splicing fitness (ln) (37 °C): -0.445 ± 0.13

CGAAAGCAAUAUUACGUCGA
self-splicing fitness (ln) (30 °C): -3.02 ± 0.17 | self-splicing fitness (ln) (37 °C): -1.51 ± 0.14

CGAAAGCAAUAUUACGUCGC
self-splicing fitness (ln) (30 °C): -3.03 ± 0.21 | self-splicing fitness (ln) (37 °C): -2.59 ± 0.23

CGAAAGCAAUAUUACGUGAG
self-splicing fitness (ln) (30 °C): -0.204 ± 0.048 | self-splicing fitness (ln) (37 °C): -0.102 ± 0.071

CGAAAGCAAUAUUACGUUGA
self-splicing fitness (ln) (30 °C): -3.72 ± 0.18 | self-splicing fitness (ln) (37 °C): -2.28 ± 0.16

CGAAAGCAAUAUUACGUUUA
self-splicing fitness (ln) (30 °C): -1.99 ± 0.13 | self-splicing fitness (ln) (37 °C): -1.83 ± 0.14

CGACAGCAAUAUUACGAGUC
self-splicing fitness (ln) (30 °C): -4.97 ± 0.36 | self-splicing fitness (ln) (37 °C): -2.42 ± 0.24

CGACAGCAAUAUUACGAUAA
self-splicing fitness (ln) (30 °C): -3.74 ± 0.28 | self-splicing fitness (ln) (37 °C): -1.27 ± 0.14

CGACAGCAAUAUUACGCAAA
self-splicing fitness (ln) (30 °C): -3.94 ± 0.31 | self-splicing fitness (ln) (37 °C): -3.08 ± 0.22

CGACAGCAAUAUUACGCAAC
self-splicing fitness (ln) (30 °C): -4.32 ± 0.31 | self-splicing fitness (ln) (37 °C): -2.61 ± 0.27

CGACAGCAAUAUUACGCAUU
self-splicing fitness (ln) (30 °C): -2.93 ± 0.15 | self-splicing fitness (ln) (37 °C): -2.03 ± 0.16

CGACAGCAAUAUUACGCCUA
self-splicing fitness (ln) (30 °C): -2.48 ± 0.19 | self-splicing fitness (ln) (37 °C): -1.01 ± 0.17

CGACAGCAAUAUUACGCUAA
self-splicing fitness (ln) (30 °C): -2.16 ± 0.19 | self-splicing fitness (ln) (37 °C): -1.57 ± 0.18

CGACAGCAAUAUUACGCUAC
self-splicing fitness (ln) (37 °C): -1.12 ± 0.28

CGACAGCAAUAUUACGGAAC
self-splicing fitness (ln) (30 °C): -3.4 ± 0.19 | self-splicing fitness (ln) (37 °C): -2.74 ± 0.23

CGACAGCAAUAUUACGGCCA
self-splicing fitness (ln) (30 °C): -1.16 ± 0.15 | self-splicing fitness (ln) (37 °C): -0.534 ± 0.18

CGACAGCAAUAUUACGGGGA
self-splicing fitness (ln) (30 °C): -3.22 ± 0.15 | self-splicing fitness (ln) (37 °C): -2.35 ± 0.11

CGACAGCAAUAUUACGGUUC
self-splicing fitness (ln) (30 °C): -2.59 ± 0.1 | self-splicing fitness (ln) (37 °C): -2.24 ± 0.13

CGACAGCAAUAUUACGUAAU
self-splicing fitness (ln) (30 °C): -3.73 ± 0.16 | self-splicing fitness (ln) (37 °C): -2.34 ± 0.15

CGACAGCAAUAUUACGUAUA
self-splicing fitness (ln) (30 °C): -4.3 ± 0.47 | self-splicing fitness (ln) (37 °C): -1.54 ± 0.27

CGACAGCAAUAUUACGUCAC
self-splicing fitness (ln) (30 °C): -3.14 ± 0.14 | self-splicing fitness (ln) (37 °C): -2.19 ± 0.16

CGACAGCAAUAUUACGUGAG
self-splicing fitness (ln) (30 °C): -0.627 ± 0.052 | self-splicing fitness (ln) (37 °C): -0.333 ± 0.074

CGACAGCAAUAUUACGUGCC
self-splicing fitness (ln) (30 °C): -1.11 ± 0.12 | self-splicing fitness (ln) (37 °C): -0.684 ± 0.14

CGACAGCAAUAUUACGUGUA
self-splicing fitness (ln) (30 °C): -3 ± 0.14 | self-splicing fitness (ln) (37 °C): -1.59 ± 0.1

CGACAGCAAUAUUACGUUAG
self-splicing fitness (ln) (30 °C): -2.51 ± 0.097 | self-splicing fitness (ln) (37 °C): -0.772 ± 0.095

CGACAGCAAUAUUACGUUCU
self-splicing fitness (ln) (30 °C): -0.971 ± 0.05 | self-splicing fitness (ln) (37 °C): -0.0323 ± 0.07

CGACAGCAAUAUUACGUUGG
self-splicing fitness (ln) (30 °C): -2.92 ± 0.1 | self-splicing fitness (ln) (37 °C): -1.54 ± 0.1

CGAGAGCAAUAUUACGAAAC
self-splicing fitness (ln) (30 °C): -2.91 ± 0.36 | self-splicing fitness (ln) (37 °C): -1.97 ± 0.48

CGAGAGCAAUAUUACGAAUG
self-splicing fitness (ln) (30 °C): -2.96 ± 0.2 | self-splicing fitness (ln) (37 °C): -2.03 ± 0.21

CGAGAGCAAUAUUACGAUCG
self-splicing fitness (ln) (30 °C): -2.87 ± 0.43

CGAGAGCAAUAUUACGCAUC
self-splicing fitness (ln) (30 °C): -3.04 ± 0.35 | self-splicing fitness (ln) (37 °C): -2.33 ± 0.35

CGAGAGCAAUAUUACGCAUG
self-splicing fitness (ln) (30 °C): -2.98 ± 0.12 | self-splicing fitness (ln) (37 °C): -2.02 ± 0.12

CGAGAGCAAUAUUACGCGUA
self-splicing fitness (ln) (30 °C): -3.31 ± 0.19 | self-splicing fitness (ln) (37 °C): -2.67 ± 0.29

CGAGAGCAAUAUUACGCUUG
self-splicing fitness (ln) (30 °C): -3.51 ± 0.33 | self-splicing fitness (ln) (37 °C): -3.14 ± 0.34

CGAGAGCAAUAUUACGGCUU
self-splicing fitness (ln) (37 °C): -3.05 ± 0.4

CGAGAGCAAUAUUACGGUAC
self-splicing fitness (ln) (30 °C): -3.63 ± 0.47 | self-splicing fitness (ln) (37 °C): -0.529 ± 0.28

CGAGAGCAAUAUUACGGUUG
self-splicing fitness (ln) (30 °C): -2.88 ± 0.14 | self-splicing fitness (ln) (37 °C): -1.21 ± 0.14

CGAGAGCAAUAUUACGUAAU
self-splicing fitness (ln) (37 °C): -2.01 ± 0.3

CGAGAGCAAUAUUACGUACC
self-splicing fitness (ln) (30 °C): -3.27 ± 0.38 | self-splicing fitness (ln) (37 °C): -1.7 ± 0.41

CGAGAGCAAUAUUACGUGCG
self-splicing fitness (ln) (30 °C): -3.43 ± 0.29 | self-splicing fitness (ln) (37 °C): -1.8 ± 0.2

CGAGAGCAAUAUUACGUGGC
self-splicing fitness (ln) (30 °C): -4.31 ± 0.46 | self-splicing fitness (ln) (37 °C): -2.55 ± 0.26

CGAGAGCAAUAUUACGUGUU
self-splicing fitness (ln) (30 °C): -3.83 ± 0.25 | self-splicing fitness (ln) (37 °C): -3.71 ± 0.46

CGAUAGCAAUAUUACGAACG
self-splicing fitness (ln) (30 °C): -0.892 ± 0.11 | self-splicing fitness (ln) (37 °C): 0.0703 ± 0.12

CGAUAGCAAUAUUACGAAGC
self-splicing fitness (ln) (37 °C): -1.1 ± 0.4

CGAUAGCAAUAUUACGAAUA
self-splicing fitness (ln) (30 °C): -0.837 ± 0.46 | self-splicing fitness (ln) (37 °C): -1.47 ± 0.46
